Values of other authors as cited in article PMC2682639.

Biological target: Hint1 (Homo sapiens) (UniProt P49773)

Hint1, sequence (P49773 2-126): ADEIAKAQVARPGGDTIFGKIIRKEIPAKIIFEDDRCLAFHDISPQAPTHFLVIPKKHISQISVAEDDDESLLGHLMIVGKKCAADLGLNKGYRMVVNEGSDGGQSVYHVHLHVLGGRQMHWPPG

Substance: Hint1 (from UniProt P49773)
- Kd: < 1 nM
